Here are results for 3 molecules from PMC3549491, “Structural Basis of the Intracellular Sorting of the SNARE VAMP7 by the AP3 Adaptor Complex” (Developmental Cell, 2012).

The target in assay [1] is T1, VAMP7 longin domain (UniProt P70280 1-120).
T1 chain: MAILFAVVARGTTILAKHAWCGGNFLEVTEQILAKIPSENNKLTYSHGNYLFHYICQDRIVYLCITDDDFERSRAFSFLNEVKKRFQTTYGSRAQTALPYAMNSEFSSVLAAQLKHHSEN
Nature of the assay: ITC. (ITC needs no label: the signal is the heat of the interaction.)

Assay [2] addresses VAMP7 longin domain L43S/Y45S (UniProt P70280 1-120, L43S | Y45S). Nature of the assay: ITC.
Assay [3] has as its target T2, VAMP7 longin domain (UniProt P70280 1-120).
T2 construct: VAMP7 (Ti-VAMP), longin domain; also called VAMP7LD; VAMP longin domain
T2 sequence (looked up): T1 chain
The experiment in a line: ITC; Microcal Auto-iTC200; VAMP7 longin domain in the cell at 0.15–0.2 mM, GST delta constructs at 0.8–1.2 mM titrated; 50 mM HEPES pH 7.4, 200 mM NaCl, 4 mM ß-mercaptoethanol. The note with it: both partners purified.

The Kd is the equilibrium constant for the complex coming apart. Read a low Kd as tighter binding.

With PFYIKSSPSPQKRYQDTPGVEHSPSVQIDLSVPLKVPGLPMSDQYVKLE (domain or fragment) [GST δ-adaptin (680–728) I702S/V704S], the Kd with VAMP7 longin domain [1] is greater than 300 µM. On the same count and under the same terms, for PFYIKSSPSPQKRYQDTPGVEHIPVVQIDSSVPSKVPGLPMSDQYVKLE (domain or fragment) [GST δ-adaptin (680–728) L709S/L713S] the value was greater than 300 µM.

B1: GST δ-adaptin (680–728) (domain or fragment, UniProt O14617-5 680-728, looked up)
chain: PFYIKSSPSPQKRYQDTPGVEHIPVVQIDLSVPLKVPGLPMSDQYVKLE
notes: source: Rosetta2(DE3)pLysS, purified (glutathione-Sepharose, Superdex 75)
For the molecule B1, the Kd in assay [2] is greater than 300 µM; with VAMP7 longin domain [3], 14 µM.
